Where no end group is shown, it is not given here. The star is where a group is joined. biotin = biotin label attached through an aminohexanoic acid linker; Biotin = O=C1N[C@H]2[C@H](CS[C@H]2CCCCC(=O)*)N1; Ahx = NCCCCCC(=O)O

For nine molecules, Kd, koff and kon results are on record in patent publication US20210253636A1.

Chain of peptide-binding domain of GRP78 (GRP78-PBD, amino acids 421-639) (P11021 421-639 limits assumed, form in doubt): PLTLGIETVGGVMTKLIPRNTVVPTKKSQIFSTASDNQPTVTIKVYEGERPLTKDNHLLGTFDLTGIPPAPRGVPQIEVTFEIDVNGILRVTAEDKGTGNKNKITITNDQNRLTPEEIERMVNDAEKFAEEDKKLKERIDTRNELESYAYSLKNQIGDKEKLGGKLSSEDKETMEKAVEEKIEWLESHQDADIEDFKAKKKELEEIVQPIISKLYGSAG

One experiment has as its target peptide-binding domain of GRP78 (GRP78-PBD, amino acids 421-639) (UniProt P11021). Briefly: SPR (BIACORE T200), N-biotin peptide on streptavidin CM5 chip, GRP78-PBD analyte.
What is called Kd is a measure of binding affinity in units of concentration. Higher therefore signals weaker binding. As a reminder, the koff is the first-order rate constant of dissociation. A lower koff goes with slow dissociation. One may read the kon as the second-order rate constant of association. {biotin-Ahx}-GGGGSRLLDTNRPFLFY [P13-CTP, N-terminally extended with GGGGS and N-terminally biotin-labeled] came in with a dissociation constant Kd of 2700 nM, a dissociation rate constant (koff) of 0.0034 s⁻¹ and a kon of 1200 M⁻¹ s⁻¹.

For the molecule {biotin-Ahx}-GGGGSRPFLPFLPYRPFLPFLPY [F5P6-TR-CTP, N-terminally extended with GGGGS and N-terminally biotin-labeled], the Kd worked out at 1000 nM, the off-rate constant (koff) came to 0.00091 s⁻¹ and the kon came out at 890 M⁻¹ s⁻¹.

As for {biotin-Ahx}-GGGGSRPFLFPFLFY [F4P13-TR-CTP, N-terminally extended with GGGGS and N-terminally biotin-labeled], the equilibrium dissociation constant (Kd) worked out at 2100 nM, the dissociation rate constant (koff) was 0.0017 s⁻¹ and the on-rate (kon) came out at 790 M⁻¹ s⁻¹.

With {biotin-Ahx}-GGGGSRPFLPFLPY [F4P6-TR-CTP, N-terminally extended with GGGGS and N-terminally biotin-labeled], the Kd was 1200 nM, the off-rate (koff) was determined as 0.0028 s⁻¹ and the association rate constant (kon) amounted to 2300 M⁻¹ s⁻¹.

On to {biotin-Ahx}-GGGGSRLLDTNRPFLPY [P6-CTP, N-terminally extended with GGGGS and N-terminally biotin-labeled], for which the equilibrium dissociation constant (Kd) worked out at 1900 nM, the koff is 0.003 s⁻¹ and the kon is 1500 M⁻¹ s⁻¹.

With {biotin-Ahx}-GGGGSRPFLFPFLFYRPFLFPFLFY [F5P13-TR-CTP, N-terminally extended with GGGGS and N-terminally biotin-labeled], the equilibrium dissociation constant (Kd) worked out at 610 nM, the off-rate (koff) stood at 0.0012 s⁻¹ and the kon worked out at 1900 M⁻¹ s⁻¹.

For a further experiment the target is unchanged. Briefly: SPR (BIACORE T200), C-terminal biotin peptide on streptavidin CM5 chip, GRP78-PBD analyte. A general note: In SPR one partner is held on a chip, and binding of the other changes the refractive index at the surface.
Regarding RPFLFPFLFYGGGGSK(Biotin), the Kd came to 660 nM, the koff worked out at 0.0012 s⁻¹ and the kon worked out at 1800 M⁻¹ s⁻¹.

MRPFLFPFLFYGGGGSK(Biotin) registered an equilibrium dissociation constant (Kd) of 1200 nM, a dissociation rate constant (koff) of 0.00029 s⁻¹ and a kon of 240 M⁻¹ s⁻¹.

As to RLLDTNRPFLFYGGGGSK(Biotin) [P13-CTP-cBiotin (P13-CTP extended at the C-terminus with GGGGSK, biotin on the C-terminal lysine)], the Kd came to 2700 nM, the koff amounted to 0.002 s⁻¹ and the on-rate (kon) stood at 970 M⁻¹ s⁻¹.
